Test results: patent US20120107297A1 (KOREA RESEARCH INSTITUTE OF BIOSCIENCE AND BIOTECHNOLOGY, published 2012)

B1: UCP (endogenous E2EPF ubiquitin carrier protein) (enzyme, human, UniProt Q16763 1-222, looked up)
chain: MNSNVENLPPHIIRLVYKEVTTLTADPPDGIKVFPNEEDLTDLQVTIEGPEGTPYAGGLFRMKLLLGKDFPASPPKGYFLTKIFHPNVGANGEICVNVLKRDWTAELGIRHVLLTIKCLLIHPNPESALNEEAGRLLLENYEEYAARARLLTEIHGGAGGPSGRAEAGRALASGTEASSTDPGAPGGPGGAEGPMAKKHAGERDKKLAAKKKTDKKRALRRL
notes: Endogenous protein in cell lysates; also called E2EPF-UCP; endogenous UCP
B2: Elongin B (endogenous) (other, human, UniProt Q15370 1-118, looked up)
chain: MDVFLMIRRHKTTIFTDAKESSTVFELKRIVEGILKRPPDEQRLYKDDQLLDDGKTLGECGFTSQTARPQAPATVGLAFRADDTFEALCIEPFSSPPELPDVMKPQDSGSSANEQAVQ

Experiments:
[1] = biological target: Elongin C (endogenous) (human, UniProt Q15369 1-112); assay: summary sentence citing FIG. 7 and FIG. 8b
Chain of Elongin C (endogenous) (Q15369 whole entry): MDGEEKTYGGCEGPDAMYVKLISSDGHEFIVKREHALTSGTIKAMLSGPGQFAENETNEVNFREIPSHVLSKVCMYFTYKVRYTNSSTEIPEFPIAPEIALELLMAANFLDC
Description: (§1) CAKI (kidney cancer cell line) or HepG2 (liver cancer cell line) cells were collected from 10 100 mm culture dishes and frozen at −70° C. The frozen cells were lysed in 0.5 ml of a cell lysis buffer (50 mM Tris, 0.5 mM EDTA, 50 mM KCl, 10% glycerol, 1 mM DTT, 0.5% NP-40, 0.5 mM PMSF). The cell lysate was loaded in 10 ml of 5%-20% sucrose density gradient solution, followed by ultra-centrifugation at 35,000 rpm for 16 hours.

[2] = biological target: Rbx1 (endogenous) (human, UniProt P62877 1-108); assay: summary sentence citing FIG. 7 and FIG. 8b
Chain of Rbx1 (endogenous) (P62877 whole entry): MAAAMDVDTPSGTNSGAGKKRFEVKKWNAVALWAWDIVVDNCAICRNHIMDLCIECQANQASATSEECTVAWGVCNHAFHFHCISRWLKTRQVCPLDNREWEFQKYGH
Description: as §1

[3] = biological target: T1, VHL E3 ligase complex (comprising VHL, Elongin B, Elongin C and Rbx1) (human, UniProt P40337 1-213; Q15370 1-118; Q15369 1-112; P62877 1-108); assay: sucrose density gradient centrifugation of cell lysate, Western blot of fractions
T1 construct: also called VHL E3 ubiquitin ligase complex
T1 sequence (P40337 whole entry, chain 1 of 3): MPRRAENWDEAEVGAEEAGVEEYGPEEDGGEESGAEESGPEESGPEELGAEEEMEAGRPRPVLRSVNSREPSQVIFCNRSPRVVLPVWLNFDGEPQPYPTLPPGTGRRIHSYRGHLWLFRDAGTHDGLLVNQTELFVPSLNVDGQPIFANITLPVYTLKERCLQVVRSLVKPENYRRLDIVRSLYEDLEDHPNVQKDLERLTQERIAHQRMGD
T1 sequence (Q15369 whole entry, chain 3 of 3): as the sequence (Q15369 whole entry) above
T1 sequence (P62877 whole entry, chain 4 of 3): as the sequence (P62877 whole entry) above
Description: as §1

[4] = biological target: B1; assay: summary sentence citing FIG. 7 and FIG. 8b
Description: as §1

Binder | binding result [1] | binding result [2] | binding result [3] | binding result [4]
B1 | no binding | no binding | no binding | 
B2 |  |  |  | no binding
